# Measurements reported in the RNAGym collection of RNA variant scans (doi:10.1073/pnas.2313332121).
# B1: TPR t1 (parent)
# chain: GACCAAUCUGCCCUCAGAGCUCGAGAACAUCUUCGGAUGCAGAGGAGGCAGGCUUCGGUGGCGCGAUAGCGCCAACGUCCUCAACCUCCAAUGCAUCCCACCACAUGAUGAUGCCUGAAGAGCCUUGGUUUUUUG
# Variants of: B1
# Assay: polymerase ribozyme fitness, log enrichment relative to wild type (log ratio); higher = more active; in vitro selection for triplet polymerase activity
# Procedure, shortened: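 Both subunits of a heterodimeric triplet polymerase ribozyme were given their own mutant library, built by PCR and transcribed. Each library was annealed with a biotinylated primer, the partner subunit and triplets, incubated frozen at −7 °C, and its extended constructs gel-excised, captured on streptavidin beads and amplified by RT-PCR, all in one round done in triplicate. Fitness is the logarithm of genotype enrichment relative to wild-type enrichment, with replicates averaged by inverse-variance weighting. That logarithm is base 2, and Illumina-sequenced genotypes needed ≥10 input reads and ≥1 read per output.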
row,Variant,polymerase ribozyme fitness (log ratio)
1,G61C A100U G120C G127U,-1.07
2,G61A A84U G117A,-1.64
3,C62A U87C,-0.344
4,G61U G120A,0.595
5,G61C G65A,-4.9
6,G61C C115U,-3.07
7,G61U G117C,-2.09
8,G61U G117U,-1.34
9,G61U G69C C72U A111C,-6.94
10,G61A C102G,-6.12
11,G60U C62G U92C,-2.78
12,G61U U92A,-2.49
13,G61A G113C G135A,-2.34
14,G61U C73A U78A,-1.43
15,G60A A90C C123U,0.00477
16,G61C U92A C98U C101U U106A U112G G120C,-7.61
17,G61A C85G G93A C101G,-2.53
18,G61U C86A C115U,-1.4
19,G61C U78A U116G,-1.8
20,G60A C89A,-1.99
21,C62G A84U A108G,-5.29
22,G61C C97A C124G,-5.48
23,G60C C97G U109A,-7.09
24,G61U U129G,-1.79

row,Variant,polymerase ribozyme fitness (log ratio)
1,G61C C70U C114U G127U,-4.4
2,G61U G63A,-4.12
3,G60A G61A C88A G120C A121U,-2.51
4,G61U G77C C79U,-0.442
5,C62U A118G,0.164
6,C62G C73U A83G,-4.25
7,G60C G69U G93A G113C,-5.05
8,C62U A84G C101A,-1.66
9,G61C C70U,-4.17
10,G61U U78G U112G,0.877
11,C62U A95C G113U G135A,-3.24
12,U59G G110U G135U,-2.85
13,U59C U106G,-1.74
14,G60C C82A A105G U131A,-4.31
15,G61A G93A C97A G120U U133C,-6.04
16,C62A U131A G135A,-2.64
17,G61A C97G C124U,-2.04
18,C62U C94U,-0.381
19,G60A G77A C82G,-0.994
20,G61C U116C,-2.77
21,G61C G63A,-4.78
22,G61C G63U,-5.51
23,U59G G61U A118U,-0.0772
24,C62A U78G U87C,-1.47

row,Variant,polymerase ribozyme fitness (log ratio)
1,G60A C64A U112C,-6.76
2,G61A C73U U78A,-0.265
3,G60A C89A A105U C114U,-6.37
4,G61A A91C C94G A105C U109A A119C,-7.38
5,G60C G93A,-0.963
6,G61A A91C C123U,0.543
7,G60U C79U G93A C102A,-2.44
8,G60U C86U,-1.37
9,G61U C104U U116A,-2.46
10,G61C C101A U112G,-3.98
11,G61C C98U,-2.55
12,C62G C79U U81A C85A,-6.14
13,U59G U96G A111C U131A U133A,-1.54
14,G61A U78C A95C C123A,0.138
15,G61A U106C,0.151
16,G61U C82A C89G C101A C102A U112C C123A,-7.12
17,G60A C73A,-0.416
18,G60A C98A,-4.29
19,G60A C98G,-7.02
20,G61A U106C G122A,-0.878
21,G61U U109G,-4.68
22,C62A C115U,-2.53
23,G60U C114A,-1.45
24,G60C G117A,-0.79

row,Variant,polymerase ribozyme fitness (log ratio)
1,G60A C82U C85G U129A,-3
2,G61A C114U,-1.49
3,G61A C114A,-0.372
4,G60A C88U A118G,-1.01
5,G60U U106G,-1.17
6,G61A C88U U131G,-0.555
7,G60C U78A A91U,-2.07
8,G60A C115U,-1.41
9,G61A A103U,-4.95
10,G61A A103G,-2.38
11,G61U C97A C124A,-2.39
12,G60A A91C,-1.35
13,G61U C114G,-1.85
14,G61A G77A A91G,-2.58
15,G60C C86A G117C C123U,-6.38
16,G61U C62A,-5.14
17,G60U C79U U81A C97A U106A,-6.56
18,G61A G77U,0.142
19,C62A U130A,-1.33
20,G61A C73A A118G,-1.71
21,G61A C89A A90U A91G,-1.77
22,G61C U106C G135U,-3.18
23,G60A G93U,-1.61
24,G61A C124A,1.79

row,Variant,polymerase ribozyme fitness (log ratio)
1,G61C C89U,-1.58
2,G61A G65A,-3.94
3,G60A G69U,-0.576
4,G60A U81A,-1.44
5,G60A G110A U112C,-1.67
6,G61A C88G U129A,-1.82
7,G60C C123U,0.343
8,G60A U81G U109A C124A,-7.74
9,G61C C101U,-1.77
10,G60U A121G,1.76
11,U59C U112C,1.98
12,G61A U129C,0.132
13,G60C C85A,-0.933
14,G61A U106A G113C,-1.85
15,G60C U81C U116A,-2.88
16,G60C G63A,-5.52
17,C62A U131A,-0.5
18,G60U U116C U132A,-0.473
19,G60A C104A G113U,-5.38
20,C62G U106C U131A,-2.52
21,G61A U92A C123A,-2.16
22,G61C A90U,-4.47
23,C62G U87C A111G,-3.32
24,C62G C101U,-1.28

row,Variant,polymerase ribozyme fitness (log ratio)
1,G60C C97A,-4.44
2,G61A U78G G107A C114U G117A,-6.96
3,C62A G120U,0.191
4,C62A G120A,-0.339
5,G60A U78C C97G,-4.55
6,G60A A90G U96C C101G,-1.58
7,G61U A108C,-3.81
8,G60A C101A U106A A119U C123U,-4.23
9,G60U C115U,-0.124
10,U59G U109G G120U,-4.53
11,G61U U96C,0.151
12,C62A G113U C114G,-4.19
13,G61A C64U C86A,-4.48
14,G60C C124G,0.305
15,G60C C124A,1.07
16,G61A C79U C104A C124A,0.783
17,C62U A108G,-1.69
18,G61C G63C G117C U126A G135U,-4.51
19,C62G C99U A121G,-4.31
20,G60C U130C,-1.11
21,C62A A68G C72U,-3.88
22,G61A U132A,0.242
23,G60A G69U A95U U126A,-2.8
24,U59G G63U U129C,-2.43

row,Variant,polymerase ribozyme fitness (log ratio)
1,C62U A74C C89A C104A U112C,-2.59
2,G60A U112A,1.13
3,C62U C80G,-6.35
4,C62G U131A,-1.42
5,G61C A100U A111G G113A,-4.64
6,G61U G77A U130G,-0.935
7,G60A U78G A84U G93A C102A,-4.94
8,G60U C70U,-2.43
9,U59G A90G C97U A111C,0.601
10,G60A U112G G120A,-2.56
11,G60A C79U U130C,0.829
12,C62U A74U,-0.71
13,C62G C115A,-1.81
14,C62A A75U A111C,-1.81
15,G60A C86U,-0.149
16,C62A A90C U112A,-2.63
17,C62G U87A,-2.48
18,G60A G93C U132A,-1.25
19,C62U A74U U78A,-0.615
20,C62U C104U A108C,-6
21,G61A G120U,0.215
22,G61A G120C,1.14
23,G61U U109A U125A,-5.58
